Molecular target: C1Q (UniProt P02745)
Experiment: ELISA, antibody coated on the plate, C1q titrated (axis [C1q] nM), anti-human C1q-HRP detection

Sequence of C1Q (P02745 23-245 limits assumed, chain 1 of 3): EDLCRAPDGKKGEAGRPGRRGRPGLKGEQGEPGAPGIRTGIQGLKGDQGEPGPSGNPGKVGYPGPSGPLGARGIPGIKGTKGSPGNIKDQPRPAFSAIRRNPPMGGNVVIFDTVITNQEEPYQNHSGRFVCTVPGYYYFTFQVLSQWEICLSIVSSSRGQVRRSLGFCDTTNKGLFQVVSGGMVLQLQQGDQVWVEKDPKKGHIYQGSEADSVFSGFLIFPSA
Sequence of C1Q (P02746 28-253 limits assumed, chain 2 of 3, further chain): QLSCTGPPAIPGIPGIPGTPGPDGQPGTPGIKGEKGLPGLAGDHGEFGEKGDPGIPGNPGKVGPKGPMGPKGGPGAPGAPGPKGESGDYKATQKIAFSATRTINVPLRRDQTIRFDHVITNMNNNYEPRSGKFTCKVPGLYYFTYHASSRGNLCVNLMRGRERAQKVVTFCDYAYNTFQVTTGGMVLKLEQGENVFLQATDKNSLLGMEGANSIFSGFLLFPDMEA
Sequence of C1Q (P02747 29-245 limits assumed, chain 3 of 3, further chain): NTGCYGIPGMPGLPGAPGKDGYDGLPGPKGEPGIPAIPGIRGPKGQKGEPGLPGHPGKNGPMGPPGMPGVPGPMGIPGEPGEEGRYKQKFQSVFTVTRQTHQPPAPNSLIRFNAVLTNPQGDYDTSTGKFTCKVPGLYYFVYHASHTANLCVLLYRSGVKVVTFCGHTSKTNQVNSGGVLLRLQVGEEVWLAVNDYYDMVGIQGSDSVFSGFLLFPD

EC50 (read off the curve): 30 nM
Substance: control human IgG1 antibody
